Fewer inactive variants are shown than the library holds.
B1: TPR 5TU (parent)
chain: GGAUCUUCUCGAUCUAACAAAAAAGACAAAUCUGCCACAAAGCUUGAGAGCAUCUUCGGAUGCAGAGGCGGCAGCCUUCGGUGGCGCGAUAGCGCCAACGUUCUCAACUAUGACACGCAAAACGCGUGCUCCGUUGAAUGGAGUUUAUCAUG

Variants of: B1
Assay: polymerase ribozyme fitness, log enrichment relative to wild type (log ratio); higher = more active; in vitro selection for triplet polymerase activity
Summary of the method: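 Both subunits of a heterodimeric triplet polymerase ribozyme were given their own mutant library, built by PCR and transcribed. Each library was annealed with a biotinylated primer, the partner subunit and triplets, incubated frozen at −7 °C, and its extended constructs gel-excised, captured on streptavidin beads and amplified by RT-PCR, all in one round done in triplicate. Fitness is the logarithm of genotype enrichment relative to wild-type enrichment, with replicates averaged by inverse-variance weighting. That logarithm is base 2, and Illumina-sequenced genotypes needed ≥10 input reads and ≥1 read per output.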

Row | Variant | polymerase ribozyme fitness (log ratio)
1 | GGAUCUUCUCGAUCUAACAAAAAAGACAAAUCUGCCAUAAAGCUUGAGAGCAUCUUCGGCUGCAGAGGCGGCAGCCUUCGGUGGUGCGAUAGCGCCAACGUUCUCAACUAUGACACGUAAAACGCGUGCUCCGUUAAAUGGAGUUUAUCAUG [C38U A60C C85U C118U G136A] | -0.726
2 | GGAUCUUCUCGAUCUAACAAAAAAGACAAAUCUGCCAUAAAGCUUGAGAGCAUCUUCGGAUGCAGAGGCGGCAGCCUUCGGUGGCGCGAUAGCGCCAACGUUCUCAACUAUGACACGCAUAACGCGUGCUCCGUUGAAUGGAGUUUAUCAUG [C38U A120U] | -0.54
3 | GGAUCUUCUCGAUCUAACAAAAAAGACAAAUCUGCCAUAUAGCUUGAGAGCAUCUUCGGAUGCAGAGGCGGCAGCCUUCGGUGGCGCGAUAGCGCCAACGUUCUCAACUAUGACAUGCAAAACGCGUGCUCCGUAGAAUGGAGUUUAUCAUG [C38U A40U C116U U135A] | 0.399
4 | GGAUCUUCUCGAUCUAACAAAAAAGACAAAUCUGCCAUAAAGCUUGAGCGCAUCUUCGGAUGCAGAGGCGGCAGCCUUCGGUGGUGCGAUAUCGCCAACGUUAUCAACUACGACACGCAAAACGCGUGCUCCGUUGAAUGGAGCUUAUCAUG [C38U A49C C85U G92U C103A U111C U144C] | ≤ -4.2
5 | GGAUCUUCUCGAUCUAACAAAAAAGACAAAUCUGCCAUAAAGCUUGAGAGCGUCUUUGGAUGCAGAUGCGGCAGCCUUCGGUGGCGCGUUAACGCCAACGUUCUCAACUAUGACACGCAAAACGCGUGCUCCGUUGAAUGGAGUUUAUCAUG [C38U A52G C57U G67U A89U G92A] | ≤ -4.2
6 | GGAUCUUCUCGAUCUAACAAAAAAGACAAAUCUGCCAUAAAGCUUGAGAGCAUCUUCGGAUGCAGAGGCGGCUGCCUUCGGUGGCGCGAUAGCGCCAACGUUCUCAACUAUGACACGCAAAACGCGUGCUCCGUUGAAUGGAGUUUAUCAUG [C38U A73U] | 0.0337
7 | GGAUCUUCUCGAUCUAACAAAAAAGACAAAUCUGCCAUAAUGCUUGAGAGCAUCUUCGGAUGCAGAGGCGGCAGCCUUCGGUGGCGCGAUAGCACCAACGUUCUCAACUAUGACACGCAAAACGCGUGCUCCGUUGAAUGGAGUUUAUCAUG [C38U A41U G94A] | -1.15
8 | GGAUCUUCUCGAUCUAACAAAAAAGACAAAUCUGCCAGAAAGCUUGAGAGCAUCUGCGGAUGCAGAGGCGGAAGCCUUCGGUGGCGCGAUUGCGCCAACGUUCUCACCUAUGACACACAAAACGCGUGCUCCGUUGAAUGGAGUUUAACAUG [C38G U56G C72A A91U A107C G117A U148A] | ≤ -4.2
9 | GGAUCUUCUCGAUCUAACAAAAAAGACAAAUCUGCCAUAACGCUUGAAAGAAUCUUCGGAUGCAGAGGCGGCAGCCUUCGGUGCCGCGAUAGCGCCAACGUUCUCAACUAUGACACGCAAAACGCGUGCUCCGUUGAAUGCAGUUUAUCAUG [C38U A41C G48A C51A G84C G141C] | ≤ -4.2
10 | GGAUCUUCUCGAUCUAACAAAAAAGACAAAUCUGCCAUAAAGCUUGCGAGCAUCUUCGGAUGCCGAGGCGGCAGCCUGCGGUGCCGCGAUAGCGCCCACGUUCUCAAUUAUGACACGCAAAACGCGUGCUCCGUUGAAUGGAGUUUAUCAUG [C38U A47C A64C U78G G84C A97C C108U] | ≤ -4.2
11 | GGAUCUUCUCGAUCUAACAAAAAAGACAAAUCUGCCAUAAAGCUUGAGAGCGUCUUCGGAUGCAGAGGCGGCAGCCUUCGGUGGCGCGAUAACGCCAACGUUCUCAACUAUGACACGCAAAACUCGUGCUCCGUUGAAUGGAGUUUAUCAUG [C38U A52G G92A G124U] | -3.84
12 | GGAUCUUCUCGAUCUAACAAAAAAGACAAAUCUGCCAUACAGCUUGAGAGCAUCUUCGGAUGCAGAGGCGGCAGCCUUCGAUGGCGCGAUGGCGCCAACGUUCUCAACUAUGACACGCAAAACGGGUGCUCCGUUGAAUGGAGUUUAUCAUG [C38U A40C G81A A91G C125G] | -3.83
13 | GGAUCUUCUCGAUCUAACAAAAAAGACAAAUCUGCCAUAAAGCUUGAGAGCAUCUUCGGAUGCAGAGGCGGCAGCCUUCGGUGGCGCGGUAGCGCCAACGUUCUCAACUAUGACACGCAAAACGCGUGCUCCGUUGAAUGGAGUUUAUCAUG [C38U A89G] | -1.07
14 | GGAUCUUCUCGAUCUAACAAAAAAGACAAAUCUGCCAGAAAGCUUGAGAGCAUCUUCGGAUGCAGAGGCGGCAGCCUUCGGUGGCGCGAUAGCGCCAACGUUCUCAACUAUGACACGCAAAACGCGUGCUCCGUUGAAUCGAGUUUAUCAUG [C38G G140C] | -4.11
15 | GGAUCUUCUCGAUCUAACAAAAAAGACAAAUCUGCCAUAAAGCUUGAGAGCAUCUUCGGAUGCAGAGGCGGCGGCCUUCGGUUGCGCGAUUGCGCCUACGUUCUCAACUGUGACACGCAAAACGCGUGCUCCGUUGAAUGGAGUUUAUCAUG [C38U A73G G83U A91U A97U A110G] | ≤ -4.2
16 | GGAUCUUCUCGAUCUAACAAAAAAGACAAAUCUGCCAGAAAGCUUGAGAGCAUCUUCGGAUGCAGAGGCGGCAGCCUUCGGUGGCGCGAUAGCGCCAACGUUCUCAACUAUGACACGCAAAACGCGUGCUCCGUUGAAUGAAGUUUAUCAUG [C38G G141A] | -0.0444
17 | GGAUCUUCUCGAUCUAACAAAAAAGACAAAUCUGCCAGAAAGCUUGAGAGCAUCUACGGAUGCAGAGGCGGCAGCCUUCGGUGGCGCGAUAGUGCCAACGUUCGCAACUAUGACACGCAAACCGCGUGCUCCGUUGAAUGGAGUUUAUCAUG [C38G U56A C93U U104G A122C] | -2.96
18 | GGAUCUUCUCGAUCUAACAAAAAAGACAAAUCUGCCAUAAAGCUUGAGAGCAUCUUCGGAUGCAGAGGCGGCAGCCUUCGGUGGCGCGAUAGCGCCAACGUUCUCUACUAUGACACGCAAAACGCGUGCUCCGUUGAAUGGAGUCUAUCAUG [C38U A106U U145C] | -1.24
19 | GGAUCUUCUCGAUCUAACAAAAAAGACAAAUCUGCCAUAAAGCUUGAGAGCAUCUUCGGAUGCAGAGGCGGCAGCCUUCGGUGGCGCGAUAGCGCCAACGUUCUCACCUAUGACACGCAAAACGCGUGCUCCGUUGAAUGGAGUUUAUCAUG [C38U A107C] | -3.45
